According to paper PMC11667226 (Theranostics, 2025):
Where two headings read alike, the source gives them in different places. Non-standard residues stand in square brackets, D forms with d. Residues, ends and D or L forms follow the SMILES beside them. *: point of attachment. X1 = CC1(C)C(=CC=CC=CC=CC2=[N+](CCCCCC(=O)*)c3ccc4ccccc4c3C2(C)C)N(CCCCS(=O)(=O)[O-])c2ccc3ccccc3c21; Cha = N[C@@H](CC1CCCCC1)C(=O)O

Details: for TEAE Mild (Grade 1): No. events / TEAE Mild (Grade 1): No. patients (%) / TEAE Moderate (Grade 2): No. events / TEAE Moderate (Grade 2): No. patients (%) / TEAE Severe (Grade 3): No. events / TEAE Severe (Grade 3): No. patients (%): CTCAE v5.0
Procedure: ECGs were taken at baseline, 1 hr ± 15 min, and 44 hrs ± 6 h post-injection. Blood samples (including lever and kidney parameters) were sampled at baseline, 12 hrs ± 4 hrs, and 44 hrs ± 6 hrs post-injection. All laboratory analyses were performed by the Department of Biochemistry at Rigshospitalet. AE assessments were graded according to the National Cancer Institute “Common Terminology Criteria for Adverse Events (CTCAE)” version 5.0. There was no data monitoring committee in this trial.

CC(C)C[C@H](NC(=O)[C@H](Cc1ccc(O)cc1)NC(=O)[C@@H](CCCNC(=N)N)NC(=O)[C@@H](CO)NC(=O)[C@H](Cc1ccccc1)NC(=O)[C@H](CC1CCCCC1)NC(=O)[C@H](CC(=O)O)NC(=O)[C@H](CCC(=O)O)NC(=O)[C@H](CCC(=O)O)NC(=O)CCCCC[N+]1=C(C=CC=CC=CC=C2N(CCCCS(=O)(=O)[O-])c3ccc4ccccc4c3C2(C)C)C(C)(C)c2c1ccc1ccccc21)C(=O)N[C@@H](Cc1c[nH]c2ccccc12)C(=O)N[C@@H](CO)C(=O)O [FG001, ICG-Glu-Glu-AE105] (X1-EED[Cha]F[dS][dR]YLWS-OH; N-terminus and C-terminus assumed)
ECG abnormalities (ECGs at baseline, 1 hr and 44 hrs post-injection): No ECG abnormalities | TEAE ALT increased: No. events (FG001 4 mg i.v., N=5): 0 | TEAE ALT increased: No. subjects (%) (FG001 4 mg i.v., N=5): 0 (0.0%) | TEAE AST increased: No. events (FG001 4 mg i.v., N=5): 1 | TEAE AST increased: No. subjects (%) (FG001 4 mg i.v., N=5): 1 (20.0%) | TEAE Blood ALP increased: No. events (FG001 4 mg i.v., N=5): 0 | TEAE Blood ALP increased: No. subjects (%) (FG001 4 mg i.v., N=5): 0 (0.0%) | TEAE Blood bilirubin increased: No. events (FG001 4 mg i.v., N=5): 1 | TEAE Blood bilirubin increased: No. subjects (%) (FG001 4 mg i.v., N=5): 1 (20.0%) | TEAE Blood creatinine increased: No. events (FG001 4 mg i.v., N=5): 0 | TEAE Blood creatinine increased: No. subjects (%) (FG001 4 mg i.v., N=5): 0 (0.0%) | TEAE Dysgeusia: No. events (FG001 4 mg i.v., N=5): 0 | TEAE Dysgeusia: No. subjects (%) (FG001 4 mg i.v., N=5): 0 (0.0%) | TEAE GGT increased: No. events (FG001 4 mg i.v., N=5): 0 | TEAE GGT increased: No. subjects (%) (FG001 4 mg i.v., N=5): 0 (0.0%) | TEAE Hypalbuminaemia: No. events (FG001 4 mg i.v., N=5): 4 | TEAE Hypalbuminaemia: No. subjects (%) (FG001 4 mg i.v., N=5): 4 (80.0%) | TEAE Hyperglycaemia: No. events (FG001 4 mg i.v., N=5): 0 | TEAE Hyperglycaemia: No. subjects (%) (FG001 4 mg i.v., N=5): 0 (0.0%) | TEAE Hypertension: No. events (FG001 4 mg i.v., N=5): 0 | TEAE Hypertension: No. subjects (%) (FG001 4 mg i.v., N=5): 0 (0.0%) | TEAE Hyponatraemia: No. events (FG001 4 mg i.v., N=5): 1 | TEAE Hyponatraemia: No. subjects (%) (FG001 4 mg i.v., N=5): 1 (20.0%) | TEAE Hypotension: No. events (FG001 4 mg i.v., N=5): 0 | TEAE Hypotension: No. subjects (%) (FG001 4 mg i.v., N=5): 0 (0.0%) | TEAE Hypothermia: No. events (FG001 4 mg i.v., N=5): 0 | TEAE Hypothermia: No. subjects (%) (FG001 4 mg i.v., N=5): 0 (0.0%) | TEAE Pneumonia: No. events (FG001 4 mg i.v., N=5): 0 | TEAE Pneumonia: No. subjects (%) (FG001 4 mg i.v., N=5): 0 (0.0%) | TEAE SOC General disorders and administration site conditions: No. events (FG001 4 mg i.v., N=5): 0 | TEAE SOC General disorders and administration site conditions: No. subjects (%) (FG001 4 mg i.v., N=5): 0 (0.0%) | TEAE SOC Infections and infestations: No. events (FG001 4 mg i.v., N=5): 0 | TEAE SOC Infections and infestations: No. subjects (%) (FG001 4 mg i.v., N=5): 0 (0.0%) | TEAE SOC Investigations: No. events (FG001 4 mg i.v., N=5): 2 | TEAE SOC Investigations: No. subjects (%) (FG001 4 mg i.v., N=5): 2 (40.0%) | TEAE SOC Metabolism and nutrition disorders: No. events (FG001 4 mg i.v., N=5): 5 | TEAE SOC Metabolism and nutrition disorders: No. subjects (%) (FG001 4 mg i.v., N=5): 4 (80.0%) | TEAE SOC Nervous system disorders: No. events (FG001 4 mg i.v., N=5): 0 | TEAE SOC Nervous system disorders: No. subjects (%) (FG001 4 mg i.v., N=5): 0 (0.0%) | TEAE SOC Vascular disorders: No. events (FG001 4 mg i.v., N=5): 0 | TEAE SOC Vascular disorders: No. subjects (%) (FG001 4 mg i.v., N=5): 0 (0.0%) | FG001 related TEAEs: No. events (FG001 4 mg i.v., n = 5): 0 | FG001 related TEAEs: No. patients (%) (FG001 4 mg i.v., n = 5): 0 (0%) | SAEs: No. events (FG001 4 mg i.v., n = 5): 0 | SAEs: No. patients (%) (FG001 4 mg i.v., n = 5): 0 (0%) | TEAE: No. events (FG001 4 mg i.v., n = 5): 7 | TEAE: No. patients (%) (FG001 4 mg i.v., n = 5): 4 (80%) | TEAE Mild (Grade 1): No. events (FG001 4 mg i.v., n = 5): 5 | TEAE Mild (Grade 1): No. patients (%) (FG001 4 mg i.v., n = 5): 2 (40.0%) | TEAE Moderate (Grade 2): No. events (FG001 4 mg i.v., n = 5): 2 | TEAE Moderate (Grade 2): No. patients (%) (FG001 4 mg i.v., n = 5): 2 (40.0%) | TEAE Severe (Grade 3): No. events (FG001 4 mg i.v., n = 5): 0 | TEAE Severe (Grade 3): No. patients (%) (FG001 4 mg i.v., n = 5): 0 (0.0%) | TEAE ALT increased: No. events (FG001 16 mg i.v., N=8): 0 | TEAE ALT increased: No. subjects (%) (FG001 16 mg i.v., N=8): 0 (0.0%) | TEAE AST increased: No. events (FG001 16 mg i.v., N=8): 1 | TEAE AST increased: No. subjects (%) (FG001 16 mg i.v., N=8): 1 (12.5%) | TEAE Blood ALP increased: No. events (FG001 16 mg i.v., N=8): 0 | TEAE Blood ALP increased: No. subjects (%) (FG001 16 mg i.v., N=8): 0 (0.0%) | TEAE Blood bilirubin increased: No. events (FG001 16 mg i.v., N=8): 2 | TEAE Blood bilirubin increased: No. subjects (%) (FG001 16 mg i.v., N=8): 2 (25.0%) | TEAE Blood creatinine increased: No. events (FG001 16 mg i.v., N=8): 1 | TEAE Blood creatinine increased: No. subjects (%) (FG001 16 mg i.v., N=8): 1 (12.5%) | TEAE Dysgeusia: No. events (FG001 16 mg i.v., N=8): 1 | TEAE Dysgeusia: No. subjects (%) (FG001 16 mg i.v., N=8): 1 (12.5%) | TEAE GGT increased: No. events (FG001 16 mg i.v., N=8): 0 | TEAE GGT increased: No. subjects (%) (FG001 16 mg i.v., N=8): 0 (0.0%) | TEAE Hypalbuminaemia: No. events (FG001 16 mg i.v., N=8): 5 | TEAE Hypalbuminaemia: No. subjects (%) (FG001 16 mg i.v., N=8): 5 (62.5%) | TEAE Hyperglycaemia: No. events (FG001 16 mg i.v., N=8): 1 | TEAE Hyperglycaemia: No. subjects (%) (FG001 16 mg i.v., N=8): 1 (12.5%) | TEAE Hypertension: No. events (FG001 16 mg i.v., N=8): 1 | TEAE Hypertension: No. subjects (%) (FG001 16 mg i.v., N=8): 1 (12.5%) | TEAE Hyponatraemia: No. events (FG001 16 mg i.v., N=8): 0 | TEAE Hyponatraemia: No. subjects (%) (FG001 16 mg i.v., N=8): 0 (0.0%) | TEAE Hypotension: No. events (FG001 16 mg i.v., N=8): 1 | TEAE Hypotension: No. subjects (%) (FG001 16 mg i.v., N=8): 1 (12.5%) | TEAE Hypothermia: No. events (FG001 16 mg i.v., N=8): 1 | TEAE Hypothermia: No. subjects (%) (FG001 16 mg i.v., N=8): 1 (12.5%) | TEAE Pneumonia: No. events (FG001 16 mg i.v., N=8): 1 | TEAE Pneumonia: No. subjects (%) (FG001 16 mg i.v., N=8): 1 (12.5%) | TEAE SOC General disorders and administration site conditions: No. events (FG001 16 mg i.v., N=8): 1 | TEAE SOC General disorders and administration site conditions: No. subjects (%) (FG001 16 mg i.v., N=8): 1 (12.5%) | TEAE SOC Infections and infestations: No. events (FG001 16 mg i.v., N=8): 1 | TEAE SOC Investigations: No. events (FG001 16 mg i.v., N=8): 4 | TEAE SOC Investigations: No. subjects (%) (FG001 16 mg i.v., N=8): 3 (37.5%) | TEAE SOC Metabolism and nutrition disorders: No. events (FG001 16 mg i.v., N=8): 6 | TEAE SOC Metabolism and nutrition disorders: No. subjects (%) (FG001 16 mg i.v., N=8): 5 (62.5%) | TEAE SOC Nervous system disorders: No. events (FG001 16 mg i.v., N=8): 1 | TEAE SOC Vascular disorders: No. events (FG001 16 mg i.v., N=8): 2 | TEAE SOC Vascular disorders: No. subjects (%) (FG001 16 mg i.v., N=8): 2 (25.0%) | FG001 related TEAEs: No. events (FG001 16 mg i.v., n = 8): 0 | FG001 related TEAEs: No. patients (%) (FG001 16 mg i.v., n = 8): 0 (0%) | SAEs: No. events (FG001 16 mg i.v., n = 8): 0 | SAEs: No. patients (%) (FG001 16 mg i.v., n = 8): 0 (0%) | TEAE: No. events (FG001 16 mg i.v., n = 8): 15 | TEAE: No. patients (%) (FG001 16 mg i.v., n = 8): 8 (100%) | TEAE Mild (Grade 1): No. events (FG001 16 mg i.v., n = 8): 11 | TEAE Mild (Grade 1): No. patients (%) (FG001 16 mg i.v., n = 8): 4 (50.0%) | TEAE Moderate (Grade 2): No. events (FG001 16 mg i.v., n = 8): 4 | TEAE Moderate (Grade 2): No. patients (%) (FG001 16 mg i.v., n = 8): 4 (50.0%) | TEAE Severe (Grade 3): No. events (FG001 16 mg i.v., n = 8): 0 | TEAE Severe (Grade 3): No. patients (%) (FG001 16 mg i.v., n = 8): 0 (0.0%) | TEAE ALT increased: No. events (FG001 36 mg i.v., N=4): 1 | TEAE ALT increased: No. subjects (%) (FG001 36 mg i.v., N=4): 1 (25.0%) | TEAE AST increased: No. events (FG001 36 mg i.v., N=4): 1 | TEAE AST increased: No. subjects (%) (FG001 36 mg i.v., N=4): 1 (25.0%) | TEAE Blood ALP increased: No. events (FG001 36 mg i.v., N=4): 1 | TEAE Blood ALP increased: No. subjects (%) (FG001 36 mg i.v., N=4): 1 (25.0%)
